Measured values reported in publication PMC2840394.

Molecular target: AL-12 variable domain (VL), amyloidogenic immunoglobulin kappa light chain of the κI O18/O8 germline (human (patient AL-12))
Assay: crystal structure

stoichiometry N: 2
Substance: AL-12 variable domain (VL), amyloidogenic immunoglobulin kappa light chain of the κI O18/O8 germline (domain or fragment)
